Here are results for one molecule from patent publication US11267868 (dated 2022).

Holding throughout (assay): SPR
A general note: In SPR one partner is held on a chip, and binding of the other changes the refractive index at the surface.

Assay [1] has as its target T1, FcgRIIaR (human, UniProt P12318).
T1 chain: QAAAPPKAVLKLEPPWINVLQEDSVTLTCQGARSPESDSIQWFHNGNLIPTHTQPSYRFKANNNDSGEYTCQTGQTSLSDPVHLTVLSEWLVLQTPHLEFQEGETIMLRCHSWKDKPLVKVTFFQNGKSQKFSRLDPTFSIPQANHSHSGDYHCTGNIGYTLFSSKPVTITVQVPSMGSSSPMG

For assay [2], the target named is T2, FcgRIIaH (human, UniProt P12318).
T2 chain: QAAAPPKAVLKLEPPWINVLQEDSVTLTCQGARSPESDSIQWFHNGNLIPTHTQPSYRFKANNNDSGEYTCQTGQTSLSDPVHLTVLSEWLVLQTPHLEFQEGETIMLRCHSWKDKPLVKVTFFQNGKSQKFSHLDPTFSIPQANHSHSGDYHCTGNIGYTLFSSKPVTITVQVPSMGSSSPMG

In assay [3] the target is T3, FcgRIIIaV (human, UniProt P08637).
T3 sequence (P08637 17-208 F176V): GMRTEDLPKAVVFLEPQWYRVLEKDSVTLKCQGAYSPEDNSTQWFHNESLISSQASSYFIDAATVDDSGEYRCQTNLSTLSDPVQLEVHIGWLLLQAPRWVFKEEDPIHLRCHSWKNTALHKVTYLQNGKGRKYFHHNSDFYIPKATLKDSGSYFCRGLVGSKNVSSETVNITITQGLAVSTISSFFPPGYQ
The target in assay [4] is T4, FcgRIa (human, UniProt P12314).
T4 chain: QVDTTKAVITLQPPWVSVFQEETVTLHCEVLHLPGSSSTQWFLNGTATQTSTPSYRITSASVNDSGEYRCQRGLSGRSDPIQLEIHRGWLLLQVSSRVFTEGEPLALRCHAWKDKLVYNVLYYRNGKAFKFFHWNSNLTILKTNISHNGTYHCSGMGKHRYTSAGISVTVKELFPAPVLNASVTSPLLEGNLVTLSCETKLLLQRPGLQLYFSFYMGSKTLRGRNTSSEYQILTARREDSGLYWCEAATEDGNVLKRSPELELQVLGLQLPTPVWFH

Assay [5] deals with T5, FcgRIIb (human, UniProt P31994).
T5 chain: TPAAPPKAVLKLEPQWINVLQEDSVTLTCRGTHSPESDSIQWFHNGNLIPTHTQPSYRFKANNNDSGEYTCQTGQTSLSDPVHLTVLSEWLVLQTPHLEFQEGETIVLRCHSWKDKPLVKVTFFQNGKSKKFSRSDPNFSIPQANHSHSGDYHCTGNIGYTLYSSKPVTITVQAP

The target of assay [6] is T5, FcgRIIb.
Assay [7] deals with T2, FcgRIIaH.
Assay [8] addresses T4, FcgRIa.
The target of assay [9] is T3, FcgRIIIaV. The source holds these as a separate data set.
Assay [10] has as its target T1, FcgRIIaR.

Like-named read-outs stand apart in the source and are kept apart here.

For orientation: Kd means the constant that tells how readily two partners part at equilibrium. High values mean weaker binding, low ones tighter binding.

B1: IL6R-P587/IL6R-L (antibody)
chain 1: QVQLQESGPGLVKPSETLSLTCAVSGHSISHDHAWSWVRQPPGEGLEWIGFISYSGITNYNPSLQGRVTISRDNSKNTLYLQMNSLRAEDTAVYYCARSLARTTAMDYWGEGTLVTVSSASTKGPSVFPLAPSSKSTSGGTAALGCLVKDYFPEPVTVSWNSGALTSGVHTFPAVLQSSGLYSLSSVVTVPSSSLGTQTYICNVNHKPSNTKVDKKVEPKSCDKTHTCPPCPAPDLLGGDSVFLFPPKPKDTLMISRTPEVTCVVIDVAEEDGEVKFNWYVDGVEVHNAKTKPREEQYNSTYRVVSVLTVLHQDWLNGKEYKCKVSNKALPAPIEKTISKAKGQPREPQVYTLPPSRDELTKNQVSLTCLVKGFYPSDIAVEWESNGQPENNYKTTPPVLDSDGSFFLYSKLTVDKSRWQQGNVFSCSVMHEALHNHYTQKSLSLSP
chain 2: not shown
For the molecule B1, the dissociation constant (Kd) was determined as 0.71 µM in the assay with FcgRIIaR [1]; 12 µM with FcgRIIaH [2]; 32 µM with FcgRIIIaV [3]; 0.00071 µM in the assay with FcgRIa [4]; 0.028 µM in the assay with FcgRIIb [5]; 0.015 µM in the assay with FcgRIIb [6]. The dissociation constant Kd with FcgRIIaH [7] came out at 14 µM; with FcgRIa [8], 0.00021 µM; with FcgRIIIaV [9] it was 28 µM; in the assay with FcgRIIaR [10], 1.2 µM.
